Each block holds one molecule with its values, some of them ahead of it.
Experiments:
[1] = target: L-asparaginase II variant EcA2-4M (sequence of the BL21(DE3) strain and of Elspar) (Escherichia coli, strain BL21(DE3) (strain printed; the species name is lost from the text shown)); assay: SEC; analytical size exclusion chromatography, TSKgel G2000SWXL, 50 uM enzyme in 25 mM sodium phosphate pH 7.4, 100 mM sodium chloride, 0.35 mL/min; hydrodynamic radius against globular standards
[2] = as above
[3] = target: T1, EcA2-K12 (L-asparaginase II, K12 strain) (Escherichia coli, UniProt P00805); assay: intrinsic tryptophan fluorescence titration (spectral center of mass), Hill fit; assay type: binding
T1 construct: gene ansB; mature protein (precursor residues 23 to 348) behind a pelB leader, pET25b, secreted from E. coli BL21(DE3), purified from medium; no tag mentioned; homotetramer with four active sites
T1 sequence (P00805 23-348): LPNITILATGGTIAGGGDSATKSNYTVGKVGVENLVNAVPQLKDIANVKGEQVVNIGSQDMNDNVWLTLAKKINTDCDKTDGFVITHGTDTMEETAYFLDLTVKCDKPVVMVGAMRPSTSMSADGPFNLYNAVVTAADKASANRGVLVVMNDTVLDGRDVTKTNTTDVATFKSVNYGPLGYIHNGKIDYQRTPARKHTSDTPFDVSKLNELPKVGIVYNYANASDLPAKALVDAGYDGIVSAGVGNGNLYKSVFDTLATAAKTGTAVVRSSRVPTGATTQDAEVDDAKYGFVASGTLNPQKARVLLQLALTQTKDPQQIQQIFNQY

[4] = target: T2, EcA2-4M (L-asparaginase II, BL21(DE3) / Elspar sequence) (Escherichia coli, UniProt P00805, N86D/S274T/T285N/V49A); assay: as above; assay type: binding
T2 construct: gene ansB; mature protein (precursor residues 23 to 348) behind a pelB leader, pET25b, secreted from E. coli BL21(DE3), purified from medium; no tag mentioned; homotetramer with four active sites
T2 sequence (P00805 23-348 V49A/N86D/S274T/T285N): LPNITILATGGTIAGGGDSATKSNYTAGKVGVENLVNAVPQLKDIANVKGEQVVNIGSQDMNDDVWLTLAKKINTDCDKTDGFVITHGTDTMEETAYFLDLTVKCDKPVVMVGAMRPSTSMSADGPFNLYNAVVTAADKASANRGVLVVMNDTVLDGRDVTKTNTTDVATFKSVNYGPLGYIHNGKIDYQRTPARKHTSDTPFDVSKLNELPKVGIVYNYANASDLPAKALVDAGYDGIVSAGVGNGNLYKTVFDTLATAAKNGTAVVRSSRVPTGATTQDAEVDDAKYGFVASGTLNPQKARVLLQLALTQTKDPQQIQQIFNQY

[5] = target: L-asparaginase II from the K12 strain (EcA2-K12) (Escherichia coli, strain K12 (strain printed; the species name is lost from the text shown)); assay: SEC; analytical size exclusion chromatography, TSKgel G2000SWXL, 50 uM enzyme in 25 mM sodium phosphate pH 7.4, 100 mM sodium chloride, 0.35 mL/min; hydrodynamic radius against globular standards
[6] = substrate: NC(=O)C[C@H](N)C(=O)O; assay: 1D 1H NMR progress curves, Lambert W fit of integrated Michaelis-Menten equation; assay type: biochemical, Escherichia coli; conditions: 160 μM L-Asn, 2.1 nM enzyme, 100 mM sodium phosphate pH 8.0, 10% D2O, 25 °C
From the text: (§1) 1D 1H NMR progress curves, Lambert W fit of integrated Michaelis-Menten equation on EcA2-K12 (L-asparaginase II, K12 strain)

[7] = substrate: NC(=O)CC[C@H](N)C(=O)O; assay: as above; assay type: biochemical, Escherichia coli; conditions: 640 μM L-Gln, 2.5 μM enzyme, 100 mM sodium phosphate pH 8.0, 10% D2O, 25 °C
From the text: as §1

[8] = substrate: NC(=O)C[C@H](N)C(=O)O; assay: as above; assay type: biochemical, Escherichia coli; conditions: 160 μM L-Asn, 1.0 nM enzyme, 100 mM sodium phosphate pH 8.0, 10% D2O, 25 °C
From the text: (§2) 1D 1H NMR progress curves, Lambert W fit of integrated Michaelis-Menten equation on EcA2-4M (L-asparaginase II, BL21(DE3) / Elspar sequence)

[9] = substrate: NC(=O)CC[C@H](N)C(=O)O; assay: as above; assay type: biochemical, Escherichia coli; conditions: 640 μM L-Gln, 1.3 μM enzyme, 100 mM sodium phosphate pH 8.0, 10% D2O, 25 °C
From the text: as §2

stoichiometry N [1]: 4
Molecule: L-asparaginase II variant EcA2-4M (sequence of the BL21(DE3) strain and of Elspar) (enzyme)

Molecule: L-asparaginase II from the K12 strain (EcA2-K12)
prepeak percentage of the total area (species of larger hydrodynamic radii) [2]: 13% for EcA2-K12

Molecule: L-asparaginase II variant EcA2-4M (sequence of the BL21(DE3) strain and of Elspar)
prepeak percentage of the total area (species of larger hydrodynamic radii) [2]: approximately 5%

Molecule: N[C@@H](CC(=O)O)C(=O)O [L-Asp]
Kd [3]: 211 ± 52 µM
Kd [4]: 66 ± 14 µM

stoichiometry N [5]: 4
Molecule: L-asparaginase II from the K12 strain (EcA2-K12) (enzyme)

B1: EcA2-K12 (L-asparaginase II, K12 strain) (Escherichia coli K-12) (protein)
chain: LPNITILATGGTIAGGGDSATKSNYTVGKVGVENLVNAVPQLKDIANVKGEQVVNIGSQDMNDNVWLTLAKKINTDCDKTDGFVITHGTDTMEETAYFLDLTVKCDKPVVMVGAMRPSTSMSADGPFNLYNAVVTAADKASANRGVLVVMNDTVLDGRDVTKTNTTDVATFKSVNYGPLGYIHNGKIDYQRTPARKHTSDTPFDVSKLNELPKVGIVYNYANASDLPAKALVDAGYDGIVSAGVGNGNLYKSVFDTLATAAKTGTAVVRSSRVPTGATTQDAEVDDAKYGFVASGTLNPQKARVLLQLALTQTKDPQQIQQIFNQY
notes: mature protein (precursor residues 23 to 348) behind a pelB leader, pET25b, secreted from E. coli BL21(DE3), purified from medium; no tag mentioned; homotetramer with four active sites
Km [6]: 8 ± 3 µM
Km [7]: 2301 ± 75 µM

B2: EcA2-4M (L-asparaginase II, BL21(DE3) / Elspar sequence) (Escherichia coli K-12; N86D/S274T/T285N/V49A) (protein)
chain: LPNITILATGGTIAGGGDSATKSNYTAGKVGVENLVNAVPQLKDIANVKGEQVVNIGSQDMNDDVWLTLAKKINTDCDKTDGFVITHGTDTMEETAYFLDLTVKCDKPVVMVGAMRPSTSMSADGPFNLYNAVVTAADKASANRGVLVVMNDTVLDGRDVTKTNTTDVATFKSVNYGPLGYIHNGKIDYQRTPARKHTSDTPFDVSKLNELPKVGIVYNYANASDLPAKALVDAGYDGIVSAGVGNGNLYKTVFDTLATAAKNGTAVVRSSRVPTGATTQDAEVDDAKYGFVASGTLNPQKARVLLQLALTQTKDPQQIQQIFNQY
notes: as for B1
Km [8]: 11 ± 5 µM
Km [9]: 3111 ± 159 µM

— PMC12273708, “Biochemical and Biophysical Divergences between Two L‑Asparaginase II Variants: Potential for Using EcA2-K12 as a Biosimilar” (Biochemistry, 2025)
